From patent US20240141027A1 (BIOARCTIC, published 2024)

Tests used:
[1] = target: T1, recombinant murine transferrin receptor 1 (mTfR1), extracellular domain fused to a His-tag (murine, UniProt Q62351 89-763); assay: BLI (Octet), mTfR1 captured on biotinylated human holo-transferrin on streptavidin sensors
T1 construct: Position of the His-tag (N or C) unknown; also called recombinant mTfR1; murine TfR1; not shown: His-tag
Experimental: Binding of expressed constructs to mTfR1 was assessed by Bio-Layer Interferometry (Octet RED384, ForteBio). High-precision streptavidin sensors were loaded in two consecutive steps: first with 20 μg/ml of biotinylated human holo-transferrin (Sigma) during 180 s and then with 20 μg/ml recombinant mTfR1, produced as described in Example 4, during 180 s. Thereafter, association of the samples to the loaded sensors was measured for 120 s, followed by dissociation for 300 s. Binding was analyzed with samples diluted to 17.5 μg/ml for mAb158-scLc-8D3-Ig.1 and mAb158-scLc-8D3-Ig.2, to 18 μg/ml for mAb158-scLc-8D3-Ig.3 and to 4.9 μg/ml for 8D3 Fab (corresponding to 100 nM of respective binding molecule). The response from a buffer sample was subtracted. All samples were diluted in 1× Kinetics buffer (ForteBio). The same buffer was used for baseline and dissociation steps. […] As controls, the 8D3 Fab and the antibody mAb158 IgG were included.

recombinant Aβ1-42 = target: T2, recombinant Aβ1-42; assay: indirect ELISA, plates coated with recombinant Aβ1-42
T2 construct: Coated at 0.5 µg/ml on ELISA plates; also called Amyloid Beta (Aβ1-42)

[2] = target: T1, recombinant murine transferrin receptor …; assay: BLI (Octet), mTfR1 captured on holo-transferrin sensors, analyte 50 nM

T1 sequence (Q62351 89-763): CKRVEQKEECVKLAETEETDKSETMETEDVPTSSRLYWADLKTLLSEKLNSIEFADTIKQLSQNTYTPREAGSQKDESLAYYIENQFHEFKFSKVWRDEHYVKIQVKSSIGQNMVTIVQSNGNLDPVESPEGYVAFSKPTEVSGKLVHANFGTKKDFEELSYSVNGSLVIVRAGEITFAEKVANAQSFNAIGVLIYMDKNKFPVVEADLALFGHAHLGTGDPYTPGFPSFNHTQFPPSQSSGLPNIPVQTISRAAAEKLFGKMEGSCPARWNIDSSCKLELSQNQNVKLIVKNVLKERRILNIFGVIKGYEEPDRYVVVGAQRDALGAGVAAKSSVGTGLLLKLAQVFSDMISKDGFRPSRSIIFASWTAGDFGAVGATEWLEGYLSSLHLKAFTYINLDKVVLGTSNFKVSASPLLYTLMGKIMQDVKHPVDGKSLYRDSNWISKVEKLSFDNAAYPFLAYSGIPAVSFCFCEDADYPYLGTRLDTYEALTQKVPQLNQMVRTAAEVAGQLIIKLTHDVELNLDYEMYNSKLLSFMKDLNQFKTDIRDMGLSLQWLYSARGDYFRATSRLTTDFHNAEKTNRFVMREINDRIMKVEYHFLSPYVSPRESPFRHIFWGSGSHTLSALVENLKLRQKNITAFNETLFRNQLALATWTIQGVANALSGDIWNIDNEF
T2 sequence (peptide, as listed by the source): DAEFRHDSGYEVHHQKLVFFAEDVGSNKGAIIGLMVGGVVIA

B1: mAb158-scLc-Ig.6 (antibody, human IgG1, kappa)
heavy: not shown
chain: DIVMTQAPLSLPVSLGDQASISCRSSQSIVHSNGNTYLEWYLQKPGQSPKLLIYKVSNRFSGVPDRFSGSGSGTDFTLKISRVEAEDLGIYYCFQGSHVPPTFGGGTKLEIKRADAAPTVSIFPPSSEQLTSGGASVVCFLNNFYPKDINVKWKIDGSERQNGVLNSWTDQDSKDSTYSMSSTLTLTKDEYERHNSYTCEATHKTSTSPIVKSFNRNECGGGGSGGGGSGGGGSGGGGSGGGGSGGGGSGGGGSGGGGSGGGGSGGGGSDIVMTQAPLSLPVSLGDQASISCRSSQSIVHSNGNTYLEWYLQKPGQSPKLLIYKVSNRFSGVPDRFSGSGSGTDFTLKISRVEAEDLGIYYCFQGSHVPPTFGGGTKLEIKRADAAPTVSIFPPSSEQLTSGGASVVCFLNNFYPKDINVKWKIDGSERQNGVLNSWTDQDSKDSTYSMSSTLTLTKDEYERHNSYTCEATHKTSTSPIVKSFNRNEC
binding result [1]: no binding

B2: mAb158-scLc-8D3-Ig.4 (bispecific antibody, human IgG1, kappa)
heavy: not shown
chain: DIVMTQAPLSLPVSLGDQASISCRSSQSIVHSNGNTYLEWYLQKPGQSPKLLIYKVSNRFSGVPDRFSGSGSGTDFTLKISRVEAEDLGIYYCFQGSHVPPTFGGGTKLEIKRADAAPTVSIFPPSSEQLTSGGASVVCFLNNFYPKDINVKWKIDGSERQNGVLNSWTDQDSKDSTYSMSSTLTLTKDEYERHNSYTCEATHKTSTSPIVKSFNRNECGGGGSGGGGSGGGGSGGGGSGGGGSGGGGSDIVMTQAPLSLPVSLGDQASISCRSSQSIVHSNGNTYLEWYLQKPGQSPKLLIYKVSNRFSGVPDRFSGSGSGTDFTLKISRVEAEDLGIYYCFQGSHVPPTFGGGTKLEIKRADAAPTVSIFPPSSEQLTSGGASVVCFLNNFYPKDINVKWKIDGSERQNGVLNSWTDQDSKDSTYSMSSTLTLTKDEYERHNSYTCEATHKTSTSPIVKSFNRNECGGGGSGGGGSGGGGSEVQLVESGGGLVQPGNSLTLSCVASGFTFSNYGMHWIRQAPKKGLEWIAMIYYDSSKMNYADTVKGRFTISRDNSKNTLYLEMNSLRSEDTAMYYCAVPTSHYVVDVWGQGVSVTVSSGGGGSGGGGSGGGGSDIQMTQSPASLSASLEEIVTITCQASQDIGNWLAWYQQKPGKSPQLLIYGATSLADGVPSRFSGSRSGTQFSLKISRVQVEDIGIYYCLQAYNTPWTFGGGTKLELKR
notes: Format [LC-L1-LC-L2-scBM]
binding result [1]: binds

B3: mAb158 IgG (antibody, V domains shown)
VH: EVKLMESGGGLVQPGGSRKLSCAASGFTFSSFGMHWVRQAPEKGLEWVAYISSGSSTIYYGDTVKGRFTISRDNPKNTLFLQMTSLRSEDTAMYYCAREGGYYYGRSYYTMDYWGQGTSVTVSS
VL: DIVMTQAPLSLPVSLGDQASISCRSSQSIVHSNGNTYLEWYLQKPGQSPKLLIYKVSNRFSGVPDRFSGSGSGTDFTLKISRVEAEDLGIYYCFQGSHVPPTFGGGTKLEIKR
notes: also called unmodified mAb158 IgG control; unmodified mAb158 control
binding result [1]: no binding (tested: 50 nM)

B4: mAb158-scLc-8D3-Ig.15 (bispecific antibody, human IgG1, kappa)
heavy: not shown
chain: DIVMTQAPLSLPVSLGDQASISCRSSQSIVHSNGNTYLEWYLQKPGQSPKLLIYKVSNRFSGVPDRFSGSGSGTDFTLKISRVEAEDLGIYYCFQGSHVPPTFGGGTKLEIKRADAAPTVSIFPPSSEQLTSGGASVVCFLNNFYPKDINVKWKIDGSERQNGVLNSWTDQDSKDSTYSMSSTLTLTKDEYERHNSYTCEATHKTSTSPIVKSFNRNECGGGGSGGGGSGGGGSGGGGSGGGGSDIQMTQSPASLSASLEEIVTITCQASQDIGNWLAWYQQKPGKSPQLLIYGATSLADGVPSRFSGSRSGTQFSLKISRVQVEDIGIYYCLQAYNTPWTFGGGTKLELKRGGGGSGGGGSGGGGSEVQLVESGGGLVQPGNSLTLSCVASGFTFSNYGMHWIRQAPKKGLEWIAMIYYDSSKMNYADTVKGRFTISRDNSKNTLYLEMNSLRSEDTAMYYCAVPTSHYVVDVWGQGVSVTVSSGGGGSGGGGSGGGGSGGGGSDIVMTQAPLSLPVSLGDQASISCRSSQSIVHSNGNTYLEWYLQKPGQSPKLLIYKVSNRFSGVPDRFSGSGSGTDFTLKISRVEAEDLGIYYCFQGSHVPPTFGGGTKLEIKRADAAPTVSIFPPSSEQLTSGGASVVCFLNNFYPKDINVKWKIDGSERQNGVLNSWTDQDSKDSTYSMSSTLTLTKDEYERHNSYTCEATHKTSTSPIVKSFNRNEC
notes: Format [LC-L1-scBM-L2-LC]; also called mAb158-scLc-Ig.15
binding result (recombinant Aβ1-42): binds | binding result [2]: binds

B5: mAb158-scLc-8D3-Ig.5 (bispecific antibody, human IgG1, kappa)
heavy: not shown
chain: DIVMTQAPLSLPVSLGDQASISCRSSQSIVHSNGNTYLEWYLQKPGQSPKLLIYKVSNRFSGVPDRFSGSGSGTDFTLKISRVEAEDLGIYYCFQGSHVPPTFGGGTKLEIKRADAAPTVSIFPPSSEQLTSGGASVVCFLNNFYPKDINVKWKIDGSERQNGVLNSWTDQDSKDSTYSMSSTLTLTKDEYERHNSYTCEATHKTSTSPIVKSFNRNECGGGGSGGGGSGGGGSGGGGSGGGGSGGGGSGGGGSGGGGSGGGGSGGGGSDIVMTQAPLSLPVSLGDQASISCRSSQSIVHSNGNTYLEWYLQKPGQSPKLLIYKVSNRFSGVPDRFSGSGSGTDFTLKISRVEAEDLGIYYCFQGSHVPPTFGGGTKLEIKRADAAPTVSIFPPSSEQLTSGGASVVCFLNNFYPKDINVKWKIDGSERQNGVLNSWTDQDSKDSTYSMSSTLTLTKDEYERHNSYTCEATHKTSTSPIVKSFNRNECGGGGSGGGGSGGGGSEVQLVESGGGLVQPGNSLTLSCVASGFTFSNYGMHWIRQAPKKGLEWIAMIYYDSSKMNYADTVKGRFTISRDNSKNTLYLEMNSLRSEDTAMYYCAVPTSHYVVDVWGQGVSVTVSSGGGGSGGGGSGGGGSDIQMTQSPASLSASLEEIVTITCQASQDIGNWLAWYQQKPGKSPQLLIYGATSLADGVPSRFSGSRSGTQFSLKISRVQVEDIGIYYCLQAYNTPWTFGGGTKLELKR
notes: Format [LC-L1-LC-L2-scBM]
binding result [1]: binds
